US20220195047A1 (TCRCURE BIOPHARMA, published 2022)

Tests used:
[1] = molecular target: T1, human PD-1 protein (hPD-1) on cell surface of 293T-PD-1 cells (human, UniProt Q15116 25-287); assay: flow cytometry on 293T-PD-1 cells
T1 construct: Human PD-1 expressed in HEK293T cells, either by lentiviral transduction or by the pCMV6-ENTRY PDCD1 cDNA RC210364; also called PDCD1 (RC210364) in HEK293T cells
Method: (§1) The cells were then stained with a secondary antibody (APC-anti-Hu IgG Fc for humanized antibodies and FITC-anti-Mouse IgG F(ab′)2 for F02) for 30 minutes (1:50), followed by flow cytometric analysis. The results were analyzed through Prism 7 and Kd values were determined by the program.

[2] = molecular target: T1, human PD-1 protein (hPD-1) on cell …; assay: flow cytometry on 293T-PD-1 cells, 4 C for 60 min, secondary APC-anti-Hu IgG Fc; y axis hPD-1%
Method: as §1

[3] = molecular target: T2, recombinant biotinylated human PD-1 (human, UniProt Q15116 25-170, limits assumed, biotinylated (site not stated)); assay: ELISA, antibody coated, biotinylated rhPD-1 titrated, Sav-HRP detection
T2 construct: also called rhPD-1; recombinant human PD-1 protein
T2 sequence (Q15116 25-170 limits assumed): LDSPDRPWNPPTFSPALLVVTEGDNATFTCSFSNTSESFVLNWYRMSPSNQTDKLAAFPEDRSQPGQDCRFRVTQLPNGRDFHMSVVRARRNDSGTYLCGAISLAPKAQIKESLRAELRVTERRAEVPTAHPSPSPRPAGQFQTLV
Method: 5 μg/ml of anti-PD1 antibody in 100 μl coating buffer was coated in the microwells at 4° C. overnight. By following the ELISA procedure, a 5-fold serial dilution of recombinant biotinylated human PD-1 was added to the assay plate pre-coated with anti-PD1 antibodies. The bound human PD-1 protein was then detected with Sav-HRP reagent. The results were analyzed through Prism 7 and Kd values were determined by the program.

[4] = molecular target: T1, human PD-1 protein (hPD-1) on cell …; assay: flow cytometry on 293T-PD-1 cells, 4 C for 60 min, secondary FITC-anti-Mouse IgG F(ab')2; y axis hPD-1%
Method: as §1

T1 sequence (Q15116 25-287 limits assumed): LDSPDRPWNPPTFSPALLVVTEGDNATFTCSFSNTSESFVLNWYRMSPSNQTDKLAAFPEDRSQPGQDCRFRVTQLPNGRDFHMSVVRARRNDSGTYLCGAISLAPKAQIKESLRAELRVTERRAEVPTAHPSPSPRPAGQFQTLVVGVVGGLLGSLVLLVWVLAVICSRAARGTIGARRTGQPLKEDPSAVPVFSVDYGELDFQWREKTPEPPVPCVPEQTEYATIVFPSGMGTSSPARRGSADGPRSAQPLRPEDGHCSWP

B1: h11 anti-PD-1 antibody (antibody, V domains shown)
VH: QVQLVQSGAEVKKPGASVKVSCKASGYTFTNYYMYWVRQAPGQGLEWIGGINPSNGGTNFNEKFKNKATMTVDKSTSTAYMELSSLRSEDTAVYYCTRRDYNYDGGFDYWGQGTLVTVSS
VL: DIVLTQSPATLSLSPGERATLSCRASKSVSTSGFNYMHWYQQKPGQAPRLLIFLASNLASGVPARFSGSGSGTDFTLTISSLEPEDFAVYYCQHGRELPLTFGQGTKLEI
notes: Humanized antibody derived from F02, detected with anti-human IgG Fc; also called hl 1
For B1, the Kd [1] was 0.55 nM, the “EC50 (read off the curve)” value [2] was about 0.07 µg/mL and the Kd [3] was 0.29 nM.

B2: Ab5 anti-PD-1 antibody (antibody, V domains shown)
VH: QVQLQQSGAEVKKPGSSVKVSCKASGYTFTNYYLYWVRQAPGQGLEWIGGINPSNGGTNFNEKFRGRVTITADESSTTAYMELSSLRSEDTAFYFCTRRDYNYDGGFDYWGQGTTVTVSS
VL: DIVMTQSPSSLSASVGDRVTITCRASKSVSTSGFNYMHWYQQTPGKAPKLLIYLASNLDSGVPARFSGSGSGTDFTFTISSLQEEDIATYYCFHGRELPLTFGQGTKLQITR
notes: Humanized antibody, detected with anti-human IgG Fc
B2 was tested, and the Kd [1] was 3.69 nM and the “EC50 (read off the curve)” value [2] was about 0.5 µg/mL.

B3: Ab4 anti-PD-1 antibody (antibody, V domains shown)
VH: QVQLQQSGAEVKKPGSSVKVSCKASGYTFTNYYLYWVRQAPGQGLEWIGGINPSNGGTNFNEKFRGRVTITADESSTTAYMELSSLRSEDTAFYFCTRRDYNYDGGFDYWGQGTTVTVSS
VL: DIQMTQSPSSLSASVGDRVTITCRASKSVSTSGFNYMHWYQQTPGKAPKLLIYLASNLDSGVPARFSGSGSGTDFTFTISSLQEEDIATYYCFHGRELPLTFGQGTKLQITR
notes: as for B2
B3 was tested, and the Kd [1] was 41 nM and the “EC50 (read off the curve)” value [2] was about 3 µg/mL.

B4: Ab8 anti-PD-1 antibody (antibody, V domains shown)
VH: EVQLQESGAEVKKPGSSVKVSCKASGYTFTNYYLYWVRQAPGQGLEWMGGINPSNGGTNFNEKFRGRVTITADESTSTAYMELSSLRSEDTAVYYCARRDYNYDGGFDYWGQGTTVTVSS
VL: DIVMTQSPDSLAVSLGERATINCRASKSVSTSGFNYMHWYQQKPGQPPKLLIYLASNLDSGVPDRFSGSGSGTDFTLTIRPLQAEDVAVYYCQHGRELPLTFGQGTKLEIK
notes: as for B2
With B4 the Kd [1] was 0.65 nM, the “EC50 (read off the curve)” value [2] was about 0.1 µg/mL and the Kd [3] was 0.32 nM.

B5: Ab2 anti-PD-1 antibody (antibody, V domains shown)
VH: QVQLQQSGAEVKKPGSSVKVSCKASGYTFTNYYLYWVRQAPGQGLEWIGGINPSNGGTNFNEKFRGRVTITADESSTTAYMELSSLRSEDTAFYFCTRRDYNYDGGFDYWGQGTTVTVSS
VL: DIQMTQSPSSLSASVGDRVTITCRASKSVSTSGFNYMHWYQQTPGKAPKLLIYLASNLDSGVPSRFSGSGSGTDFTFTISSLQPEDIATYYCFHGRELPLTFGQGTKLQITR
notes: as for B2
B5 was tested, and the Kd [1] was 3.24 nM and the “EC50 (read off the curve)” value [2] was about 0.4 µg/mL.

B6: Ab7 anti-PD-1 antibody (antibody, V domains shown)
VH: QVQLQQSGAEVKKPGSSVKVSCRASGYTFTNYYLYWVRQAPGQGLEWIGGINPSNGGTNFNEKFRGRVTITADESSTTAYMELSSLRSEDTAFYFCTRRDYNYDGGFDYWGQGTTVTVSS
VL: DIVMTQSPSSLSASVGDRVTITCRASKSVSTSGFNYMHWYQQTPGKAPKLLIYLASNLDSGVPARFSGSGSGTDFTFTISSLQEEDIATYYCFHGRELPLTFGQGTKLQITR
notes: as for B2
With B6 the Kd [1] was 2.3 nM, the “EC50 (read off the curve)” value [2] was about 0.3 µg/mL and the Kd [3] was 0.68 nM.

B7: F02 anti-PD-1 antibody (antibody, V domains shown)
VH: QQPGAELVKPGASVKLSCRASGYTFTNYYLYWVKQRPGQGLEWIGGINPSNGGTNFNEKFRGKATLTVDKSSSTAYMQLSSLTSEDSAVYFCTRRDYNYDGGFDYWGQGSTLTVSS
VL: DIVLTQSPASLAVSLGQRATISCRASKSVSTSGFNYMHWYQQKPGQPPKLLIYLASNLDSGVPARFSGSGSGTDFTLNIHPVEEEDAATYYCQHGRELPLTFGAGTKLELRR
notes: Mouse monoclonal antibody from hybridoma clone #11, detected with anti-mouse IgG F(ab')2; Only the variable domains are tied to F02; also called anti-PD-1 antibody from hybridoma clone #11; clone #11
In the case of B7, the Kd [1] is reported as 0.07 nM, the Kd [3] is reported as 0.14 nM and the “EC50 (read off the curve)” value [4] is reported as about 0.01 µg/mL.
